Measurements from patent publication US20200392227A1 (LYVGEN BIOPHARMA, published 2020).
Where a chain is given by its changes, count along the chain named.

How the values were obtained:
[1] = biological target: T1, human FcRIIIA-V158 protein (MednaBio, E1035) (human, UniProt P08637 17-208); test: BLI
T1 construct: Bought; also called FcγRIIIA(V); FcgRIIIA(V)

[2] = biological target: T2, human FcRIIB/C protein (MednaBio, E1034) (human, UniProt P31994 43-217, limits assumed); test: BLI
T2 construct: Bought as FcRIIB/C; also called FcγRIIB; CD32B
T2 sequence (looked up): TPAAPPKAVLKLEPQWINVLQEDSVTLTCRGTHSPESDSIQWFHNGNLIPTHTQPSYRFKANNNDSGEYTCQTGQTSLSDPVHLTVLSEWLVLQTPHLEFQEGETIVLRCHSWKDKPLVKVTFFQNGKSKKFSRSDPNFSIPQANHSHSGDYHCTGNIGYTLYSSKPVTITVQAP

[3] = biological target: T3, human FcRn protein (MednaBio, E1032) (human, UniProt P55899 24-297; P61769 21-119); test: BLI
T3 construct: Bought; assays at pH 6

[4] = biological target: T4, human FcRIIIA-F158 protein (MednaBio, E1036) (human, UniProt P08637 17-208); test: BLI
T4 construct: Bought; also called FcγRIIIA(F)
T4 sequence (P08637 17-208 limits assumed): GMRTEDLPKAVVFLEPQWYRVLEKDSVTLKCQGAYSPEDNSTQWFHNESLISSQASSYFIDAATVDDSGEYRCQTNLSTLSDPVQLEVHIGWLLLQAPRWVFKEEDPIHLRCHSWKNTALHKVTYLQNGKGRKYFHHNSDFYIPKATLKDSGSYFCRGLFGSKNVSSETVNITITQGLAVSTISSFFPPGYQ

[5] = biological target: T5, human FcRI protein (MednaBio, E1031) (human, UniProt P12314 16-288, limits assumed); test: BLI
T5 construct: Bought; loaded on anti-penta-HIS biosensors; also called FcγRI
T5 sequence (P12314 16-288 limits assumed): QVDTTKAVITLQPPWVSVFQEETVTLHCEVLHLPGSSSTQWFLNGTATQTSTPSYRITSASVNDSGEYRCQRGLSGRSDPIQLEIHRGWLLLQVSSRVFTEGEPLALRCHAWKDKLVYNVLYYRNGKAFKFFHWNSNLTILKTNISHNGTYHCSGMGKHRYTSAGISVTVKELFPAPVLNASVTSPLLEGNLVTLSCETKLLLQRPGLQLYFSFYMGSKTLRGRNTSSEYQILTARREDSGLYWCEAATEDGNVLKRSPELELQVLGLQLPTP

[6] = biological target: T6, human FcRIIA protein (MednaBio, E1033) (human, UniProt P12318 34-218, limits assumed); test: BLI
T6 construct: Bought; also called FcγRIIA
T6 sequence (looked up): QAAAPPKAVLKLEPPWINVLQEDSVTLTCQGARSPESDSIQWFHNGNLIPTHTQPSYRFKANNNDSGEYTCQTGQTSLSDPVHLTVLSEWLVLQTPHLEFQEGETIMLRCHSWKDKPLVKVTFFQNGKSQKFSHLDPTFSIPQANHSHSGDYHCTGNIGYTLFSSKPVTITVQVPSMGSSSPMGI

[7] = biological target: T7, human FcγRIIB expressed on CHO cells (human, UniProt P31994 43-310); test: FACS, CHO cells expressing FcγRIIB
T7 construct: whole, on cells; also called CD32B
T7 sequence (looked up): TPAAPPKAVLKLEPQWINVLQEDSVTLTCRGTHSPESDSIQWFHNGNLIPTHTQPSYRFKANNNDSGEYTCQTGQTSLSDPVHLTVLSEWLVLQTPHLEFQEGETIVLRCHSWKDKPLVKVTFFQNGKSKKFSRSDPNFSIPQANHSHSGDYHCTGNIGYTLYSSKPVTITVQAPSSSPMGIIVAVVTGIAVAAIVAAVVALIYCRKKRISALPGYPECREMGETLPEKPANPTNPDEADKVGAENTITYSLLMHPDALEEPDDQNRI
Description: (§1) For FACS analysis of the IgG mutants' binding to different FcγRs, FcγR overexpressing CHO cells were harvested using trypsin-EDTA and were suspended in cold staining buffer (3% BSA in PBS). Test IgG mutants, which were diluted in staining buffer, were added into the cells. The mixture was incubated 4° C. for 2 hours, and then washed twice with cold staining buffer and re-suspended in PE-labeled anti-human IgG followed by incubation at 4° C. for 2 hours. The mixture was washed twice with staining buffer and re-suspended in 2% PFA in PBS for FACS.

[8] = biological target: T8, human FcγRIIA(R131) expressed on CHO cells (human, UniProt P12318 34-317); test: FACS, CHO cells expressing FcγRIIA(R131)
T8 construct: whole, on cells
T8 sequence (looked up): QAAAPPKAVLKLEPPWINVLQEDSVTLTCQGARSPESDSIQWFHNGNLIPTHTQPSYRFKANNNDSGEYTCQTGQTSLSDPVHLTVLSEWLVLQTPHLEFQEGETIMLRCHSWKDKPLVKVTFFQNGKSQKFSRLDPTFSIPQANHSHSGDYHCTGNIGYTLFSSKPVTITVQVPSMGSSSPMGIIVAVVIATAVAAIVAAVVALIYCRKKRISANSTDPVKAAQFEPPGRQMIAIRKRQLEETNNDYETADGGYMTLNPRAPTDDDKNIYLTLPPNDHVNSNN

[9] = biological target: T9, human FcγRIIC expressed on CHO cells (human, UniProt P31995 43-323); test: FACS, CHO cells expressing FcγRIIC
T9 construct: whole, on cells
T9 sequence (looked up): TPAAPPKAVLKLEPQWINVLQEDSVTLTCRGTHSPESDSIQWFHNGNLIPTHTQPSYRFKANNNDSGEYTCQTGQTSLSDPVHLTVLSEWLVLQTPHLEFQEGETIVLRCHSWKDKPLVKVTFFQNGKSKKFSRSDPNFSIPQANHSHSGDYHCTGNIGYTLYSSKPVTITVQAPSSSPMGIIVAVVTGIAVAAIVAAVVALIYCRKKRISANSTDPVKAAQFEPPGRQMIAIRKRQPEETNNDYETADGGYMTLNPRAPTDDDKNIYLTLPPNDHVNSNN

[10] = biological target: T10, human FcγRIIA(H131) expressed on CHO cells (human, UniProt P12318 34-317); test: FACS, CHO cells expressing FcγRIIA(H131)
T10 construct: whole, on cells
T10 sequence (looked up): T8 sequence (looked up) with R134H
Description: as §1

[11] = biological target: T11, human FcγRI expressed on CHO cells (human, UniProt P12314 16-374); test: FACS, CHO cells expressing FcγRI
T11 construct: whole, on cells
T11 sequence (P12314 16-374): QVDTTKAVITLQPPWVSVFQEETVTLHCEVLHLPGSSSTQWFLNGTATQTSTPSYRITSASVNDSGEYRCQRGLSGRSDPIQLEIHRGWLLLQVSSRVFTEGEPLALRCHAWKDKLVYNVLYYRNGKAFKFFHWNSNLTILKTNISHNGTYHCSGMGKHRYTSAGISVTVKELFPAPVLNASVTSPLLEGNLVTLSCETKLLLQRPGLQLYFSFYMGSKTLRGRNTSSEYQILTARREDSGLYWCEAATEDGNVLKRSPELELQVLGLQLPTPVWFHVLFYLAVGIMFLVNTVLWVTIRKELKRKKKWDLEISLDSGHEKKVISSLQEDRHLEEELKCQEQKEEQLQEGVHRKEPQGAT
How it was run: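 Trypsin-harvested CHO cells overexpressing each FcγR were incubated 2 h at 4 °C with IgG mutants in 3% BSA/PBS. Bound IgG was detected with PE-labeled anti-human IgG (2 h, 4 °C), then cells were fixed in 2% PFA and analysed by flow cytometry.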

T1 sequence (P08637 17-208 F176V): as the sequence (P08637 17-208 limits assumed) above, with F160V counted along it

binding result [1]: no binding (tested: 300 nM)
binding result [2]: no binding (tested: 300 nM)
Kd [3]: 5.5 nM
koff [3]: 0.00096 s⁻¹
kon [3]: 170000 M⁻¹ s⁻¹
binding result [4]: no binding (tested: 300 nM)
binding result [5]: no binding (tested: 300 nM)
binding result [6]: no binding (tested: 300 nM)
binding result [7]: no binding (tested: 10 ug/ml)
binding result [8]: no binding (tested: 10 ug/ml)
binding result [9]: no binding (tested: 10 ug/ml)
binding result [10]: no binding (tested: 10 ug/ml)
binding result [11]: no binding (tested: 10 ug/ml)
B1: anti-CD137 IgG2 with Fc variant G2m1 (antibody)
heavy: EVQLVQSGAEVKKPGESLRISCKGSGYSFSTYWISWVRQMPGKGLEWMGKIYPGDSYTNYSPSFQGQVTISADKSISTAYLQWSSLKASDTAMYYCARGYGIFDYWGQGTLVTVSSASTKGPSVFPLAPCSRSTSESTAALGCLVKDYFPEPVTVSWNSGALTSGVHTFPAVLQSSGLYSLSSVVTVPSSNFGTQTYTCNVDHKPSNTKVDKTVERKCCVECPPCPAPPVASVFLFPPKPKDTLMISRTPEVTCVVVDVSHEDPEVQFNWYVDGVEVHNAKTKPREEQFNSTFRVVSVLTVVHQDWLNGKEYKCKVSNKGLPAPIEKTISKTKGQPREPQVYTLPPSREEMTKNQVSLTCLVKGFYPSDIAVEWESNGQPENNYKTTPPMLDSDGSFFLYSKLTVDKSRWQQGNVFSCSVMHEALHNHYTQKSLSLSPGK
light: SYELTQPPSVSVSPGQTASITCSGDNIGDQYAHWYQQKPGQSPVLVIYQDKNRPSGIPERFSGSNSGNTATLTISGTQAMDEADYYCATYTGFGSLAVFGGGTKLTVLGQPKAAPSVTLFPPSSEELQANKATLVCLISDFYPGAVTVAWKADSSPVKAGVETTTPSKQSNNKYAASSYLSLTPEQWKSHRSYSCQVTHEGSTVEKTVAPTECS
notes: copies: 2 + 2
